From patent US8969060B2, “Modified glucose dehydrogenase” (Ikeda Food Research Co., Ltd., priority 2011, dated 2015)

Tests used:
[1] = Relative enzymatic activity of GLD (DCIP/1-m-PMS, plate reader, yeast culture supernatant) with proflavin hydrochloride present; assay type: biochemical; conditions: site-specific mutants, inhibitor final concentration 1 mM
Procedure, shortened: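 Culture supernatant diluted and mixed with reagent of phosphate buffer pH 7.0, 1.0 M D-glucose, 3 mM DCIP, 3 mM 1-m-PMS and methanol (0.1:1:0.14:0.2:0.06). DCIP absorbance decrease at 600 nm followed; proflavin hydrochloride in methanol replaced methanol at 1 mM final. Activity expressed as % of inhibitor-free blank.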

[2] = Relative enzymatic activity of GLD (DCIP/1-m-PMS, plate reader, yeast culture supernatant) with 1,10-phenanthroline present; assay type: biochemical; conditions: site-specific mutants, inhibitor final concentration 1 mM
Procedure, shortened: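 Yeast transformants grown in YPD, 30° C., 24 h; diluted culture supernatant assayed in phosphate buffer pH 7.0 with D-glucose, DCIP and 1-m-PMS, DCIP absorbance change at 600 nm. Relative activity (%) = activity with 1 mM 1,10-phenanthroline (final, replacing methanol) divided by activity without it.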

| Molecule | Relative Activity [%] Proflavin hydrochloride [1] [%] | Relative Activity [%] 1,10-Phenanthroline [2] [%] |
| --- | --- | --- |
| G426T: modified GLD: SEQ ID NO: 1 with substitution G426T (protein, listed as Aspergillus terreus, SIGNAL (1)..(19)) MLGKLSFLSALSLAVAAPLSNSTSAKYDYIVIGGGTSGLAVANRLSEDPNVNVLILEAGGSVWNNPNVTNVDGYGLAFGSDIDWQYQSVNQPYGGNLSQVLRAGKALGGTSTINGMAYTRAEDVQIDAWETIGNTGWTWKNLFPYYRKSENFTVPTKSQTSLGASYEAGAHGHEGPLDVAFTQIESNNLTTYLNRTFQGMGLPWTEDVNGGKMRGFNLYPSTVNLEEYVREDAARAYYWPYKSRPNLHVLLNTFANRIVWDGEAHDGHITASGVEITSRNGTVRVINAEKEVIVSAGALKSPAILELSGIGNPSVLDKHNIPVKVNLPTVGENLQDQVNSHMDASGNTSISGTKAVSYPDVYDVFGDEAESVAKQIRANLKQYAADTAKANGNIMKAADLERLFEVQYDLIFKGRVPIAEVLNYPTSATSVFAEFWALLPFARGSVHIGSSNPAEFPVINPNYFMLDWDAKSYVAVAKYIRRSFESYPLSSIVKESTPGYDVIPRNASEQSWKEWVFDKNYRSNFHPVGTAAMMPREIGGVVDERLNVYGTTNVRVVDASVLPFQVCGHLVSTLYAVAERAADLIKADAGRR | 58.4 | 88.5 |
| G426V: modified GLD: SEQ ID NO: 1 with substitution G426V (protein, listed as Aspergillus terreus, SIGNAL (1)..(19)) MLGKLSFLSALSLAVAAPLSNSTSAKYDYIVIGGGTSGLAVANRLSEDPNVNVLILEAGGSVWNNPNVTNVDGYGLAFGSDIDWQYQSVNQPYGGNLSQVLRAGKALGGTSTINGMAYTRAEDVQIDAWETIGNTGWTWKNLFPYYRKSENFTVPTKSQTSLGASYEAGAHGHEGPLDVAFTQIESNNLTTYLNRTFQGMGLPWTEDVNGGKMRGFNLYPSTVNLEEYVREDAARAYYWPYKSRPNLHVLLNTFANRIVWDGEAHDGHITASGVEITSRNGTVRVINAEKEVIVSAGALKSPAILELSGIGNPSVLDKHNIPVKVNLPTVGENLQDQVNSHMDASGNTSISGTKAVSYPDVYDVFGDEAESVAKQIRANLKQYAADTAKANGNIMKAADLERLFEVQYDLIFKGRVPIAEVLNYPVSATSVFAEFWALLPFARGSVHIGSSNPAEFPVINPNYFMLDWDAKSYVAVAKYIRRSFESYPLSSIVKESTPGYDVIPRNASEQSWKEWVFDKNYRSNFHPVGTAAMMPREIGGVVDERLNVYGTTNVRVVDASVLPFQVCGHLVSTLYAVAERAADLIKADAGRR | 59.9 | 90.3 |
| F432T: modified GLD: SEQ ID NO: 1 with substitution F432T (protein, listed as Aspergillus terreus, SIGNAL (1)..(19)) MLGKLSFLSALSLAVAAPLSNSTSAKYDYIVIGGGTSGLAVANRLSEDPNVNVLILEAGGSVWNNPNVTNVDGYGLAFGSDIDWQYQSVNQPYGGNLSQVLRAGKALGGTSTINGMAYTRAEDVQIDAWETIGNTGWTWKNLFPYYRKSENFTVPTKSQTSLGASYEAGAHGHEGPLDVAFTQIESNNLTTYLNRTFQGMGLPWTEDVNGGKMRGFNLYPSTVNLEEYVREDAARAYYWPYKSRPNLHVLLNTFANRIVWDGEAHDGHITASGVEITSRNGTVRVINAEKEVIVSAGALKSPAILELSGIGNPSVLDKHNIPVKVNLPTVGENLQDQVNSHMDASGNTSISGTKAVSYPDVYDVFGDEAESVAKQIRANLKQYAADTAKANGNIMKAADLERLFEVQYDLIFKGRVPIAEVLNYPGSATSVTAEFWALLPFARGSVHIGSSNPAEFPVINPNYFMLDWDAKSYVAVAKYIRRSFESYPLSSIVKESTPGYDVIPRNASEQSWKEWVFDKNYRSNFHPVGTAAMMPREIGGVVDERLNVYGTTNVRVVDASVLPFQVCGHLVSTLYAVAERAADLIKADAGRR | 80.2 | 89.9 |
| F432I: modified GLD: SEQ ID NO: 1 with substitution F432I (protein, listed as Aspergillus terreus, SIGNAL (1)..(19)) MLGKLSFLSALSLAVAAPLSNSTSAKYDYIVIGGGTSGLAVANRLSEDPNVNVLILEAGGSVWNNPNVTNVDGYGLAFGSDIDWQYQSVNQPYGGNLSQVLRAGKALGGTSTINGMAYTRAEDVQIDAWETIGNTGWTWKNLFPYYRKSENFTVPTKSQTSLGASYEAGAHGHEGPLDVAFTQIESNNLTTYLNRTFQGMGLPWTEDVNGGKMRGFNLYPSTVNLEEYVREDAARAYYWPYKSRPNLHVLLNTFANRIVWDGEAHDGHITASGVEITSRNGTVRVINAEKEVIVSAGALKSPAILELSGIGNPSVLDKHNIPVKVNLPTVGENLQDQVNSHMDASGNTSISGTKAVSYPDVYDVFGDEAESVAKQIRANLKQYAADTAKANGNIMKAADLERLFEVQYDLIFKGRVPIAEVLNYPGSATSVIAEFWALLPFARGSVHIGSSNPAEFPVINPNYFMLDWDAKSYVAVAKYIRRSFESYPLSSIVKESTPGYDVIPRNASEQSWKEWVFDKNYRSNFHPVGTAAMMPREIGGVVDERLNVYGTTNVRVVDASVLPFQVCGHLVSTLYAVAERAADLIKADAGRR | 80.9 | 91.8 |
| F432V: modified GLD: SEQ ID NO: 1 with substitution F432V (protein, listed as Aspergillus terreus, SIGNAL (1)..(19)) MLGKLSFLSALSLAVAAPLSNSTSAKYDYIVIGGGTSGLAVANRLSEDPNVNVLILEAGGSVWNNPNVTNVDGYGLAFGSDIDWQYQSVNQPYGGNLSQVLRAGKALGGTSTINGMAYTRAEDVQIDAWETIGNTGWTWKNLFPYYRKSENFTVPTKSQTSLGASYEAGAHGHEGPLDVAFTQIESNNLTTYLNRTFQGMGLPWTEDVNGGKMRGFNLYPSTVNLEEYVREDAARAYYWPYKSRPNLHVLLNTFANRIVWDGEAHDGHITASGVEITSRNGTVRVINAEKEVIVSAGALKSPAILELSGIGNPSVLDKHNIPVKVNLPTVGENLQDQVNSHMDASGNTSISGTKAVSYPDVYDVFGDEAESVAKQIRANLKQYAADTAKANGNIMKAADLERLFEVQYDLIFKGRVPIAEVLNYPGSATSVVAEFWALLPFARGSVHIGSSNPAEFPVINPNYFMLDWDAKSYVAVAKYIRRSFESYPLSSIVKESTPGYDVIPRNASEQSWKEWVFDKNYRSNFHPVGTAAMMPREIGGVVDERLNVYGTTNVRVVDASVLPFQVCGHLVSTLYAVAERAADLIKADAGRR | 70.3 | 80.2 |
| V431F: modified GLD: SEQ ID NO: 1 with substitution V431F (protein, listed as Aspergillus terreus, SIGNAL (1)..(19)) MLGKLSFLSALSLAVAAPLSNSTSAKYDYIVIGGGTSGLAVANRLSEDPNVNVLILEAGGSVWNNPNVTNVDGYGLAFGSDIDWQYQSVNQPYGGNLSQVLRAGKALGGTSTINGMAYTRAEDVQIDAWETIGNTGWTWKNLFPYYRKSENFTVPTKSQTSLGASYEAGAHGHEGPLDVAFTQIESNNLTTYLNRTFQGMGLPWTEDVNGGKMRGFNLYPSTVNLEEYVREDAARAYYWPYKSRPNLHVLLNTFANRIVWDGEAHDGHITASGVEITSRNGTVRVINAEKEVIVSAGALKSPAILELSGIGNPSVLDKHNIPVKVNLPTVGENLQDQVNSHMDASGNTSISGTKAVSYPDVYDVFGDEAESVAKQIRANLKQYAADTAKANGNIMKAADLERLFEVQYDLIFKGRVPIAEVLNYPGSATSFFAEFWALLPFARGSVHIGSSNPAEFPVINPNYFMLDWDAKSYVAVAKYIRRSFESYPLSSIVKESTPGYDVIPRNASEQSWKEWVFDKNYRSNFHPVGTAAMMPREIGGVVDERLNVYGTTNVRVVDASVLPFQVCGHLVSTLYAVAERAADLIKADAGRR | 57.7 | 82.1 |
| G426Y: modified GLD: SEQ ID NO: 1 with substitution G426Y (protein, listed as Aspergillus terreus, SIGNAL (1)..(19)) MLGKLSFLSALSLAVAAPLSNSTSAKYDYIVIGGGTSGLAVANRLSEDPNVNVLILEAGGSVWNNPNVTNVDGYGLAFGSDIDWQYQSVNQPYGGNLSQVLRAGKALGGTSTINGMAYTRAEDVQIDAWETIGNTGWTWKNLFPYYRKSENFTVPTKSQTSLGASYEAGAHGHEGPLDVAFTQIESNNLTTYLNRTFQGMGLPWTEDVNGGKMRGFNLYPSTVNLEEYVREDAARAYYWPYKSRPNLHVLLNTFANRIVWDGEAHDGHITASGVEITSRNGTVRVINAEKEVIVSAGALKSPAILELSGIGNPSVLDKHNIPVKVNLPTVGENLQDQVNSHMDASGNTSISGTKAVSYPDVYDVFGDEAESVAKQIRANLKQYAADTAKANGNIMKAADLERLFEVQYDLIFKGRVPIAEVLNYPYSATSVFAEFWALLPFARGSVHIGSSNPAEFPVINPNYFMLDWDAKSYVAVAKYIRRSFESYPLSSIVKESTPGYDVIPRNASEQSWKEWVFDKNYRSNFHPVGTAAMMPREIGGVVDERLNVYGTTNVRVVDASVLPFQVCGHLVSTLYAVAERAADLIKADAGRR | 47.5 | 61.6 |
| G426W: modified GLD: SEQ ID NO: 1 with substitution G426W (protein, listed as Aspergillus terreus, SIGNAL (1)..(19)) MLGKLSFLSALSLAVAAPLSNSTSAKYDYIVIGGGTSGLAVANRLSEDPNVNVLILEAGGSVWNNPNVTNVDGYGLAFGSDIDWQYQSVNQPYGGNLSQVLRAGKALGGTSTINGMAYTRAEDVQIDAWETIGNTGWTWKNLFPYYRKSENFTVPTKSQTSLGASYEAGAHGHEGPLDVAFTQIESNNLTTYLNRTFQGMGLPWTEDVNGGKMRGFNLYPSTVNLEEYVREDAARAYYWPYKSRPNLHVLLNTFANRIVWDGEAHDGHITASGVEITSRNGTVRVINAEKEVIVSAGALKSPAILELSGIGNPSVLDKHNIPVKVNLPTVGENLQDQVNSHMDASGNTSISGTKAVSYPDVYDVFGDEAESVAKQIRANLKQYAADTAKANGNIMKAADLERLFEVQYDLIFKGRVPIAEVLNYPWSATSVFAEFWALLPFARGSVHIGSSNPAEFPVINPNYFMLDWDAKSYVAVAKYIRRSFESYPLSSIVKESTPGYDVIPRNASEQSWKEWVFDKNYRSNFHPVGTAAMMPREIGGVVDERLNVYGTTNVRVVDASVLPFQVCGHLVSTLYAVAERAADLIKADAGRR | 47.8 | 61.0 |
